Experiment [1] addresses T1, human thyroid-stimulating hormone receptor (TSHR) (human, UniProt P16473 21-764).
T1 construct: whole, on cells; Overexpressed on 293 cells; also called human TSHR
The experiment in a line: flow cytometry (FACS), 293 cells overexpressing human TSHR. (A flow cytometer gives signals particle by particle.)

For experiment [2], the target named is T2, mouse thyroid-stimulating hormone receptor (TSHR) (mouse, UniProt P47750 22-764).
T2 construct: whole, on cells; Overexpressed on 293 cells; also called mouse TSHR; murine TSHR
T2 sequence (P47750 22-764): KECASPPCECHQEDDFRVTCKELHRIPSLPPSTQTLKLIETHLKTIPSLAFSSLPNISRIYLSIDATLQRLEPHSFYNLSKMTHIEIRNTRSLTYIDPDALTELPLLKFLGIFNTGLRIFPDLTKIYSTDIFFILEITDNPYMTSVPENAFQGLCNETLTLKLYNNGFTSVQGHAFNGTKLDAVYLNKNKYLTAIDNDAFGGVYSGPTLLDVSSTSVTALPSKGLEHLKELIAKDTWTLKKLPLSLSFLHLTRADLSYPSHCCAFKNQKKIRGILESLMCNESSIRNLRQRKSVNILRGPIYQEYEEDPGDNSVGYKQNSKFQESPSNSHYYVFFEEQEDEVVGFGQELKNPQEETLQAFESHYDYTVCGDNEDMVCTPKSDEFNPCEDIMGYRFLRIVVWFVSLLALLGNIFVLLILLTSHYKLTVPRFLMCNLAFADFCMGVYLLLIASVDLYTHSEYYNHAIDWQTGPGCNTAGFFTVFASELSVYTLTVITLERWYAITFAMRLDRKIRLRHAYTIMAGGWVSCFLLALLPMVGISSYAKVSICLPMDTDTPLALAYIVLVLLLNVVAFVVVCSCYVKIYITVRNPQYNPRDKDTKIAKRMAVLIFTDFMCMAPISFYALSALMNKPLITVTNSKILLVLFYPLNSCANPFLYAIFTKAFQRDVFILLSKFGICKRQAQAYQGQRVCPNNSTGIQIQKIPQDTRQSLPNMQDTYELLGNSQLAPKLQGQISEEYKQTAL
The experiment in a line: flow cytometry (FACS), 293 cells overexpressing mouse TSHR.

In experiment [3] the target is T3, monkey thyroid-stimulating hormone receptor (TSHR) (monkey, UniProt A0A2K5X226 21-764).
T3 construct: Overexpressed on 293 cells; also called monkey TSHR
T3 sequence (A0A2K5X226 entry or part of it limits assumed, form in doubt): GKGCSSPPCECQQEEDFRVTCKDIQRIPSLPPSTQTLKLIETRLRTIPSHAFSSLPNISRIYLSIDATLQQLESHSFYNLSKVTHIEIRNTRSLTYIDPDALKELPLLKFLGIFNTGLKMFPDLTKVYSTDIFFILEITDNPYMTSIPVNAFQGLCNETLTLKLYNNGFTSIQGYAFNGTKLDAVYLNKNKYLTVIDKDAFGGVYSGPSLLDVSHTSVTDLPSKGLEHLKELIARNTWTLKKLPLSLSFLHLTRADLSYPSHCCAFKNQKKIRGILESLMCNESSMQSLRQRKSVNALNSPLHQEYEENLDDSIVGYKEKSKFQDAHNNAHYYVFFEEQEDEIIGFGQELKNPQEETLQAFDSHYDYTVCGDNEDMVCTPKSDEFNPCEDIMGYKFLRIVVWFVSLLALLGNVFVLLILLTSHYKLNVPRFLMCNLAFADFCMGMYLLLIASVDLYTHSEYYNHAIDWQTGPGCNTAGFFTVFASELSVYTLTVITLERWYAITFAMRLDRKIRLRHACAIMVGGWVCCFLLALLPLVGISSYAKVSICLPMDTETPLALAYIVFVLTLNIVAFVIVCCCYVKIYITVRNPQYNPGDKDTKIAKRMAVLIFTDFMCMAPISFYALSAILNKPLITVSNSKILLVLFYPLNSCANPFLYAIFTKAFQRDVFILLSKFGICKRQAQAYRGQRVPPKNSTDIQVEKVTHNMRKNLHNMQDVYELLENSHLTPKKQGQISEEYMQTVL
The experiment in a line: flow cytometry (FACS), 293 cells overexpressing monkey TSHR.

The target in experiment [4] is T1, human thyroid-stimulating hormone …. Kind of experiment: flow cytometry (FACS), 293 cells overexpressing human TSHR. The source holds these as a separate data set.
In experiment [5] the target is T2, mouse thyroid-stimulating hormone …. Kind of experiment: flow cytometry (FACS), 293 cells overexpressing mouse TSHR. This is another data set of the same source.
The target in experiment [6] is T3, monkey thyroid-stimulating hormone …. The experiment in a line: flow cytometry (FACS), 293 cells overexpressing monkey TSHR. This is another data set of the same source.
The target of experiment [7] is T1, human thyroid-stimulating hormone …. Kind of experiment: cell-based or functional assay.
The target of experiment [8] is T2, mouse thyroid-stimulating hormone …. Kind of experiment: flow cytometry (FACS), 293 cells overexpressing mouse TSHR. This is another data set of the same source.
Experiment [9] concerns the target T3, monkey thyroid-stimulating hormone …. The experiment in a line: flow cytometry (FACS), 293 cells overexpressing monkey TSHR. The source holds these as a separate data set.
In experiment [10] the target is T4, hFcRn-Avi (Biosystems, FCM-H82W7) (human (printed as hFcRn), UniProt P55899 24-297; P61769 21-119, biotin on the Avi tag is implied by capture on an SA chip).
T4 construct: Bought reagent
T4 sequence (P55899 24-297 limits assumed, chain 1 of 2): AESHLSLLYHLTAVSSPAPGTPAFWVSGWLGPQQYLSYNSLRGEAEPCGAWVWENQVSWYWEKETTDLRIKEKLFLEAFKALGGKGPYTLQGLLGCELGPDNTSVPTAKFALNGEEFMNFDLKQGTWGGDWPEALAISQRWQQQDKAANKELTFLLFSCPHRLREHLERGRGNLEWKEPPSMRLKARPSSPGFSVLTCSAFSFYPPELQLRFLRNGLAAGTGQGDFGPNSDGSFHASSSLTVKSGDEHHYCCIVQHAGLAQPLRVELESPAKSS
T4 sequence (P61769 21-119 limits assumed, chain 2 of 2): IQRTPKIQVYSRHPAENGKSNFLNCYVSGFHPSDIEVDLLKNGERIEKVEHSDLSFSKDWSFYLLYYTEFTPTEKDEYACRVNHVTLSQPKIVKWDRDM
Kind of experiment: SPR (Biacore 8K+), hFcRn-Avi captured on SA chip, antibody in flow, pH 6.0, 25 C, steady-state fit.

Like-named read-outs stand apart in the source and are kept apart here.

T1 sequence (P16473 21-764): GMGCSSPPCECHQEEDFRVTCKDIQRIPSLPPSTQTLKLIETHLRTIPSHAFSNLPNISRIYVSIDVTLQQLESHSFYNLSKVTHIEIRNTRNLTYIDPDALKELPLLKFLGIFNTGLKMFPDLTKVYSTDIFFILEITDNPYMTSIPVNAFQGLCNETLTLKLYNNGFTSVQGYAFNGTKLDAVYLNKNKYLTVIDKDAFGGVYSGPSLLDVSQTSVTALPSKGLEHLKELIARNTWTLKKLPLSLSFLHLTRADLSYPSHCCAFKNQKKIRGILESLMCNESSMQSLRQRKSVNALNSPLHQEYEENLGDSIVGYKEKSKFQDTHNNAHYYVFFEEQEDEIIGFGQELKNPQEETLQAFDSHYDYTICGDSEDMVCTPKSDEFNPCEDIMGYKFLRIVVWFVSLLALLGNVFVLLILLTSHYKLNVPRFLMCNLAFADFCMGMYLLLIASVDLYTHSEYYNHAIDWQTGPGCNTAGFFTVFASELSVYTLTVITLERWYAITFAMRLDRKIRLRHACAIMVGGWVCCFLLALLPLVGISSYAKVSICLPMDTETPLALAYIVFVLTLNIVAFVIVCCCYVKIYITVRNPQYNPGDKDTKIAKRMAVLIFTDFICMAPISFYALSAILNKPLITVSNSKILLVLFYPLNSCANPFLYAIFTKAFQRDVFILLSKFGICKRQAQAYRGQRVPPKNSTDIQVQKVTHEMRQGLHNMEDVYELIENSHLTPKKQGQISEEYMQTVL

B1: humanized antibody cAb12-VH1-QG&S-VL3 (antibody, human IgG4 S228P, kappa, V domains shown)
VH: QVQLVQSGAEVKKPGASVKVSCKASGYTFTDYYMNWVRQAPGQGLEWMGVINPYQGESSNNQKFKGRVTMTRDTSTSTVYMELSSLRSEDTAVYYCARSYGYGYYFDYWGQGTTVTVSS
VL: AIQLTQSPSSLSASVGDRVTITCSATSSVTYMHWYQQKPGKAPKRWIYDTSKLTSGVPPRFSGSGSGTDYTLTISSLQPEDFATYYCQQWSTYPYTFGGGTKLEIKR
notes: Humanized from mAb012
On to B1, for which the results for the EC50 in experiment [1], in experiment [2] and in experiment [3] were 10.5 nM, 14 nM and 8.1 nM, respectively. In addition, the Maximum binding signal in [1] was 420000; in [2] it was 98800; in experiment [3], 269000.

B2: humanized antibody cAb12-VH3-QG&S-VL3 (antibody, human IgG4 S228P, kappa, V domains shown)
VH: QVQLVQSGAEVKKPGASVKVSCKASGYTFTDYYMNWVKQAPGQGLEWIGVINPYQGESSNNQKFKGRATMTVDKSTSTVYMELSSLRSEDTAVYYCARSYGYGYYFDYWGQGTTVTVSS
VL: AIQLTQSPSSLSASVGDRVTITCSATSSVTYMHWYQQKPGKAPKRWIYDTSKLTSGVPPRFSGSGSGTDYTLTISSLQPEDFATYYCQQWSTYPYTFGGGTKLEIKR
notes: Humanized from mAb012
For the molecule B2, the figures for the concentration for a half-maximal effect (EC50) in experiment [1], in experiment [2] and in experiment [3] were 6.5 nM, 15 nM and 9.2 nM, respectively. Also, the Maximum binding signal in [1] was 445000; in experiment [2], 135000; in [3], 303000.

B3: murine antibody mAb001 (antibody, V domains shown)
VH: EVQLVESGGGLVKPGGSLKLSCAASGFTLSDYYIYWVRQTPEKRLEWVATISDGVIYTYYADSVKGRFTISRDNAKNNLYLQMSSLKSEDTAMYFCARAYGSSEVMDYWGQGTSVTVSS
VL: QIVLTQSPAVLSASPGEKVTMTCSASSSVSYMHWYQQKSGTSPKRWIYDTSKLASGVPARFSGSGSGTSYSLTISSMEAEDAATYYCQQWSSNPWTFGGGTKLEIK
notes: Murine monoclonal antibody from hybridoma
On to B3, for which the half-maximal effective concentration (EC50) (commonly the midpoint of the concentration-response curve) stood at 1.28 nM in [4], 2.52 nM in [5] and 0.98 nM in experiment [6]. Besides, the Maximum binding signal in experiment [4] stood at 21000; in experiment [5], 11800; in experiment [6], 13600.

B4: murine antibody mAb012 (antibody, V domains shown)
VH: EVQLQQSGPVLLKPGASVKMSCKASGYTFTDYYMNWVKQSHGKSLEWIGVINPYNGESSNNQKFKGKATMTVDKSSSTAYMELNSLTSEDSAVYYCARCYGYGYYFDYWGQGTTLSVAS
VL: QIVLTQSPAIMSASPGEKVTMTCSATSSVTYMHWYQQKSGTSPKRWIYDTSKLTSGVPPRFSGSGSGTSYSLTISSMEAEDAATYYCQQWSTYPYTFGGGTKLEIK
notes: as for B3
Take B4: the 50% effective concentration (EC50) in [4] worked out at 4.74 nM; in experiment [5], 8.65 nM; in experiment [6] it was 2.8 nM. Also, the Maximum binding signal in [4] came out at 30000; in experiment [5], 20800; in experiment [6], 24400.

B5: humanized antibody cAb01-VH1-DA-VL2 (antibody, human IgG4 S228P, kappa, V domains shown)
VH: EVQLVESGGGLVKPGGSLRLSCAASGFTLSDYYIYWVRQAPGKGLEWVSTISDAVIYTYYADSVKGRFTISRDNAKNSLYLQMNSLRAEDTAVYYCARAYGSSEVMDYWGQGTLVTVSS
VL: EIVLTQSPATLSLSPGERATLSCSASSSVSYMHWYQQKPGQAPRRWIYDTSKLASGIPARFSGSGSGTDYTLTISSLEPEDFAVYYCQQWSSNPWTFGGGTKLEIKR
notes: Humanized from mAb001
On to B5, for which, in experiment [7], the “IC50(nM), cAMP in 293-human TSHR cells activated by Tab01 (30 nM)” value turned out to be 1.3 nM; the “IC50(nM), cAMP in 293-human TSHR cells activated by Tab02 (6.5 nM)” value turned out to be 0.91 nM; the “Inhibition rate (%), cAMP in 293-human TSHR cells activated by Tab01 (30 nM)” value turned out to be 85.6%; the “Inhibition rate (%), cAMP in 293-human TSHR cells activated by Tab02 (6.5 nM)” value was determined as 87.4%. In experiment [8], this molecule showed an EC50 of 2.4 nM and a Maximum binding signal of 113000. Moreover, in experiment [9], it took 2.19 nM to reach a half-maximal effect (EC50) and the Maximum binding signal turned out to be 187000.

B6: humanized antibody cAb01-VH3-DA-VL2 (antibody, human IgG4 S228P, kappa, V domains shown)
VH: EVQLVESGGGLVKPGGSLRLSCAASGFTLSDYYIYWVRQAPGKRLEWVATISDAVIYTYYADSVKGRFTISRDNAKNSLYLQMNSLRAEDTAVYFCARAYGSSEVMDYWGQGTLVTVSS
VL: EIVLTQSPATLSLSPGERATLSCSASSSVSYMHWYQQKPGQAPRRWIYDTSKLASGIPARFSGSGSGTDYTLTISSLEPEDFAVYYCQQWSSNPWTFGGGTKLEIKR
notes: Humanized from mAb001
As to B6, in experiment [7], the “IC50(nM), cAMP in 293-human TSHR cells activated by Tab01 (30 nM)” value came out at 0.29 nM; the “IC50(nM), cAMP in 293-human TSHR cells activated by Tab02 (6.5 nM)” value is 0.23 nM; the “Inhibition rate (%), cAMP in 293-human TSHR cells activated by Tab01 (30 nM)” value is 84%; the “Inhibition rate (%), cAMP in 293-human TSHR cells activated by Tab02 (6.5 nM)” value was 82.8%. In experiment [8], the EC50 was determined as 2.09 nM and the Maximum binding signal was 129000. In experiment [9], a half-maximal effect (EC50) was put at 2.29 nM and the Maximum binding signal turned out to be 225000.

B7: hAb01_G1 (antibody, human IgG1, kappa)
heavy: not shown
light: EIVLTQSPATLSLSPGERATLSCSASSSVSYMHWYQQKPGQAPKRWIYDTSKLASGVPARFSGSGSGTDYTLTISSLEPEDFAVYYCQQWSSNPWTFGGGTKLEIKRTVAAPSVFIFPPSDEQLKSGTASVVCLLNNFYPREAKVQWKVDNALQSGNSQESVTEQDSKDSTYSLSSTLTLSKADYEKHKVYACEVTHQGLSSPVTKSFNRGEC
notes: Same variable regions as hAb01_G4P, constant region subtype hIgG1
For the molecule B7, in experiment [10], the affinity, expressed as Kd, was 189 nM and the “Response value (RU)” value was 60.7 RU.

B8: humanized antibody cAb21-VH2-VL2 (antibody, human IgG4 S228P, kappa, V domains shown)
VH: QVQLVQSGAEVKKPGASVKVSCKASGYTFSNYWMQWVRQAPGQGLEWIGEIDPADSYTAYSQKFKGRATMTVDTSTSTVYMELSSLRSEDTAVYYCARRNLLRSGDYWGQGTLVTVSS
VL: AIQLTQSPSSLSASVGDRVTITCSASSGITYIHWYQQKPGKAPKRWIYDSSKLASGVPSRFSGSGSGTDYTLTISSLQPEDFATYYCQQWSGNPPTFGQGTKLEIKR
notes: Humanized from mAb021
As for B8, the figures for the half-maximal effective concentration (EC50) in [1], in experiment [2] and in experiment [3] were 10.4 nM, 11.9 nM and 9.3 nM, respectively. Moreover, the Maximum binding signal in experiment [1] is 402000; in experiment [2] it was 175000; in [3], 313000.

B9: humanized antibody cAb21-VH1-VL3 (antibody, human IgG4 S228P, kappa, V domains shown)
VH: QVQLVQSGAEVKKPGASVKVSCKASGYTFSNYWMQWVRQAPGQGLEWMGEIDPADSYTAYSQKFKGRVTMTRDTSTSTVYMELSSLRSEDTAVYYCARRNLLRSGDYWGQGTLVTVSS
VL: AIQLTQSPSSLSASVGDRVTITCSASSGITYIHWYQQKPGKAPKRWIYDSSKLASGVPARFSGSGSGTDYTLTISSLQPEDFATYYCQQWSGNPPTFGQGTKLEIKR
notes: Humanized from mAb021
B9: the EC50 in [1] was determined as 8.7 nM; in experiment [2] it was 10.4 nM; in [3] it was 7.8 nM. For the same molecule, the Maximum binding signal in experiment [1] is 398000; in [2] it was 185000; in experiment [3] it was 308000.

B10: murine antibody mAb021 (antibody, V domains shown)
VH: QVQLQQPGAEHVQPGASVKLSCKASGYTFSNYWMQWVRQRPGQGLDWIGEIDPADSYTAYSQKFKGKATLTVDTSSTTAYMQLSSLTSEDSAVYYCARRNLLRSGDYWGQGTSLTVSS
VL: QIVLTQSPAIMSASPGEKVTMTCSASSGITYIHWYQQKSGTSPKRWIYDSSKLASGVPARFSGSGSGTSYSLTISSMEAEDAATYYCQQWSGNPPTFGAGTKLEVK
notes: as for B3
Take B10: the values for the EC50 in [4], in experiment [5] and in [6] were 3.5 nM, 10.3 nM and 4.5 nM, respectively. Further, the values for the Maximum binding signal in [4], in experiment [5] and in [6] were 52000, 31600 and 42400, respectively.

The values above are taken from EP4582451A1 (Changchun Genescience Pharmaceutical Co., Ltd., dated 2025).
